From article PMC2186984

Molecular target: cell-bound C4b (on EAC4 or EAC14 cells) (human) (UniProt P0C0L4)
Assay: radioligand binding

Row | Binder | Ka [M⁻¹] | percent of 125I-C4-bp incorporated into the cells [%] | percent of bound C4-bp released in the absence of C2 [%] | stoichiometry N (C4-bp molecules bound per C4b molecule) | maximum percent of bound 125I-C4-bp released by C2 [%]
1 | radiolabelled C4-binding protein (125I-C4-bp or 131I-C4-bp) (natural protein, 125I or 131I label (iodinated by means of Enzymobeads)) NCGPPPTLSFAAPMDITLTETRFKTGTTLKYTCLPGYVRSHSTQTLTCNSDGEWVYNTFCIYKRCRHPGELRNGQVEIKTDLSFGSQIEFSCSEGFFLIGSTTSRCEVQDRGVGWSHPLPQCEIVKCKPPPDIRNGRHSGEENFYAYGFSVTYSCDPRFSLLGHASISCTVENETIGVWRPSPPTCEKITCRKPDVSHGEMVSGFGPIYNYKDTIVFKCQKGFVLRGSSVIHCDADSKWNPSPPACEPNSCINLPDIPHASWETYPRPTKEDVYVVGTVLRYRCHPGYKPTTDEPTTVICQKNLRWTPYQGCEALCCPEPKLNNGEITQHRKSRPANHCVYFYGDEISFSCHETSRFSAICQGDGTWSPRTPSCGDICNFPPKIAHGHYKQSSSYSFFKEEIIYECDKGYILVGQAKLSCSYSHWSAPAPQCKALCRKPELVNGRLSVDKDQYVEPENVTIQCDSGYGVVGPQSITCSGNRTWYPEVPKCEWETPEGCEQVLTGKRLMQCLPNPEDVKMALEVYKLSLEIEQLELQRDSARQSTLDKEL | 4.6e+08 | 10.5 | 8 | 0.43 | 
2 | C2 (natural protein) APSCPQNVNISGGTFTLSHGWAPGSLLTYSCPQGLYPSPASRLCKSSGQWQTPGATRSLSKAVCKPVRCPAPVSFENGIYTPRLGSYPVGGNVSFECEDGFILRGSPVRQCRPNGMWDGETAVCDNGAGHCPNPGISLGAVRTGFRFGHGDKVRYRCSSNLVLTGSSERECQGNGVWSGTEPICRQPYSYDFPEDVAPALGTSFSHMLGATNPTQKTKESLGRKIQIQRSGHLNLYLLLDCSQSVSENDFLIFKESASLMVDRIFSFEINVSVAIITFASEPKVLMSVLNDNSRDMTEVISSLENANYKDHENGTGTNTYAALNSVYLMMNNQMRLLGMETMAWQEIRHAIILLTDGKSNMGGSPKTAVDHIREILNINQKRNDYLDIYAIGVGKLDVDWRELNELGSKKDGERHAFILQDTKALHQVFEHMLDVSKLTDTICGVGNMSANASDQERTPWHVTIKPKSQETCRGALISDQWVLTAAHCFRDGNDHSLWRVNVGDPKSQWGKEFLIEKAVISPGFDVFAKKNQGILEFYGDDIALLKLAQKVKMSTHARPICLPCTMEANLALRRPQGSTCRDHENELLNKQSVPAHFVALNGSKLNINLKMGVEWTSCAEVVSQEKTMFPNLTDVREVVTDQFLCSGTQEDESPCKGESGGAVFLERRFRFFQVGLVSWGLYNPCLGSADKNSRKRAPRSKVPPPRDFHINLFRMQPWLRQHLGDVLNFLPL |  |  |  |  | 50
